Measured values taken from IntAct's records for PubMed 29039417.

B1: BBSome complex member BBS5 (Homo sapiens), Q8N3I7 (parent)
chain: MSVLDALWEDRDVRFDLSAQQMKTRPGEVLIDCLDSIEDTKGNNGDRGRLLVTNLRILWHSLALSRVNVSVGYNCILNITTRTANSKLRGQTEALYILTKCNSTRFEFIFTNLVPGSPRLFTSVMAVHRAYETSKMYRDFKLRSALIQNKQLRLLPQEHVYDKINGVWNLSSDQGNLGTFFITNVRIVWHANMNDSFNVSIPYLQIRSIKIRDSKFGLALVIESSQQSGGYVLGFKIDPVEKLQESVKEINSLHKVYSASPIFGVDYEMEEKPQPLEALTVEQIQDDVEIDSDGHTDAFVAYFADGNKQQDREPVFSEELGLAIEKLKDGFTLQGLWEVMS
partner: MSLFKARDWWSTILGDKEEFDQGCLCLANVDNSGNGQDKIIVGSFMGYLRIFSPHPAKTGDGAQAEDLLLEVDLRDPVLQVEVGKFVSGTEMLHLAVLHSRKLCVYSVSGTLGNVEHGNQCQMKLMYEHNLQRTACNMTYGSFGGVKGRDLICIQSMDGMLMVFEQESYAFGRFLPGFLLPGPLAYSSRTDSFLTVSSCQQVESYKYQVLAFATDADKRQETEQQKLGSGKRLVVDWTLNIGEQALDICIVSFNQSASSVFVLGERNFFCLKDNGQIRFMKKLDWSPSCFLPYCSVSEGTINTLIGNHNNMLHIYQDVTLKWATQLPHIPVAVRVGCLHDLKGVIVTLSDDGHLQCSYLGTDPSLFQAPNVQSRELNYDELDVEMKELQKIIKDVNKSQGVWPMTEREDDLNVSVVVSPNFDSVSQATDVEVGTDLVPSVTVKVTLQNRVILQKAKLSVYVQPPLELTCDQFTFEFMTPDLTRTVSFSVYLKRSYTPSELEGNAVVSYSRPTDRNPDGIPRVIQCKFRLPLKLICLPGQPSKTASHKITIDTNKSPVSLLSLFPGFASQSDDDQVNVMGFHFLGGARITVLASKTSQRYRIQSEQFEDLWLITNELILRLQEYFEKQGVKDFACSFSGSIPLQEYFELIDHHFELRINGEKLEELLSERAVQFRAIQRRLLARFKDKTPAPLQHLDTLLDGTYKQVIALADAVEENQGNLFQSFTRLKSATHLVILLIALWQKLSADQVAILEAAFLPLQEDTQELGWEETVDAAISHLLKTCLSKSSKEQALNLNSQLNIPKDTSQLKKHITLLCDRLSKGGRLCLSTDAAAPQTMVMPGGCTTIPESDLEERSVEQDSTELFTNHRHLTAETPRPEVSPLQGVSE

Variants of: B1
Settings: with pthb1_human BBS9, Q3SYG4

Effect of a mutation on the interaction, with no effect:
MSVLDALWEDRDVRFDLSAQQMKTRPGEVLIDCLDSIEDTKGNNGDRGRLLVTNLRILWHSLALSRVNVSVGYNCILNITTRTANSKLRGQTEALYILTKCNSTRFEFIFTNLVPGSPRLFTSVMAVHRAYETSKMYRDFKLRSALIQNKQLRLLPQEHVYDKINGVWNLSSDQGNLGTFFITNVRIVWHANMNDSFNVSIPYLQIRSIKIRDSKFGLALVIESSQQSGGYVLGFKIDPVEKLQESVKEINSLHKVYSASPIFGEDYEMEEKPQPLEALTVEQIQDDVEIDSDGHTDAFVAYFADGNKQQDREPVFSEELGLAIEKLKDGFTLQGLWEVMS [V265E]
MSVLDALWEDRDVRFDLSAQQMKTRPGEVLIDCLDSIEDTKGNNGDRGRLLVTNLRILWHSLALSRVNVSVGYNCILNITTRTANSKLRGQTEALYILTKCNSTRFEFIFTNLVPGSPRLFTSVMAVHRAYETSKMYRDFKLRSALIQNKQLRLLPQEHVYDKINGVWNLSSDQGNLGTFFITNVRIVWHANMNDSFNVSIPYLQIRSIKIRDSKFGLALVIESSQQSGGYVLGFKIDPVEKLQESVKEINSLHKVYSASPIFGKDYEMEEKPQPLEALTVEQIQDDVEIDSDGHTDAFVAYFADGNKQQDREPVFSEELGLAIEKLKDGFTLQGLWEVMS [V265K]
MSVLDALWEDRDVRFDLSAQQMKTRPGEVLIDCLDSIEDTKGNNGDRGRLLVTNLRILWHSLALSRVNVSVGYNCILNITTRTANSKLRGQTEALYILTKCNSTRFEFIFTNLVPGSPRLFTSVMAVHRAYETSKMYRDFKLRSALIQNKQLRLLPQEHVYDKINGVWNLSSDQGNLGTFFITNVRIVWHANMNDSFNVSIPYLQIRSIKIRDSKFGLALVIESSQQSGGYVLGFKIDPVEKLQESVKEINSLHKVYSASPIFGVAYEMEEKPQPLEALTVEQIQDDVEIDSDGHTDAFVAYFADGNKQQDREPVFSEELGLAIEKLKDGFTLQGLWEVMS [D266A]
MSVLDALWEDRDVRFDLSAQQMKTRPGEVLIDCLDSIEDTKGNNGDRGRLLVTNLRILWHSLALSRVNVSVGYNCILNITTRTANSKLRGQTEALYILTKCNSTRFEFIFTNLVPGSPRLFTSVMAVHRAYETSKMYRDFKLRSALIQNKQLRLLPQEHVYDKINGVWNLSSDQGNLGTFFITNVRIVWHANMNDSFNVSIPYLQIRSIKIRDSKFGLALVIESSQQSGGYVLGFKIDPVEKLQESVKEINSLHKVYSASPIFGVEYEMEEKPQPLEALTVEQIQDDVEIDSDGHTDAFVAYFADGNKQQDREPVFSEELGLAIEKLKDGFTLQGLWEVMS [D266E]
MSVLDALWEDRDVRFDLSAQQMKTRPGEVLIDCLDSIEDTKGNNGDRGRLLVTNLRILWHSLALSRVNVSVGYNCILNITTRTANSKLRGQTEALYILTKCNSTRFEFIFTNLVPGSPRLFTSVMAVHRAYETSKMYRDFKLRSALIQNKQLRLLPQEHVYDKINGVWNLSSDQGNLGTFFITNVRIVWHANMNDSFNVSIPYLQIRSIKIRDSKFGLALVIESSQQSGGYVLGFKIDPVEKLQESVKEINSLHKVYSASPIFGVKYEMEEKPQPLEALTVEQIQDDVEIDSDGHTDAFVAYFADGNKQQDREPVFSEELGLAIEKLKDGFTLQGLWEVMS [D266K]
MSVLDALWEDRDVRFDLSAQQMKTRPGEVLIDCLDSIEDTKGNNGDRGRLLVTNLRILWHSLALSRVNVSVGYNCILNITTRTANSKLRGQTEALYILTKCNSTRFEFIFTNLVPGSPRLFTSVMAVHRAYETSKMYRDFKLRSALIQNKQLRLLPQEHVYDKINGVWNLSSDQGNLGTFFITNVRIVWHANMNDSFNVSIPYLQIRSIKIRDSKFGLALVIESSQQSGGYVLGFKIDPVEKLQESVKEINSLHKVYSASPIFGVDAEMEEKPQPLEALTVEQIQDDVEIDSDGHTDAFVAYFADGNKQQDREPVFSEELGLAIEKLKDGFTLQGLWEVMS [Y267A]
MSVLDALWEDRDVRFDLSAQQMKTRPGEVLIDCLDSIEDTKGNNGDRGRLLVTNLRILWHSLALSRVNVSVGYNCILNITTRTANSKLRGQTEALYILTKCNSTRFEFIFTNLVPGSPRLFTSVMAVHRAYETSKMYRDFKLRSALIQNKQLRLLPQEHVYDKINGVWNLSSDQGNLGTFFITNVRIVWHANMNDSFNVSIPYLQIRSIKIRDSKFGLALVIESSQQSGGYVLGFKIDPVEKLQESVKEINSLHKVYSASPIFGVDEEMEEKPQPLEALTVEQIQDDVEIDSDGHTDAFVAYFADGNKQQDREPVFSEELGLAIEKLKDGFTLQGLWEVMS [Y267E]
MSVLDALWEDRDVRFDLSAQQMKTRPGEVLIDCLDSIEDTKGNNGDRGRLLVTNLRILWHSLALSRVNVSVGYNCILNITTRTANSKLRGQTEALYILTKCNSTRFEFIFTNLVPGSPRLFTSVMAVHRAYETSKMYRDFKLRSALIQNKQLRLLPQEHVYDKINGVWNLSSDQGNLGTFFITNVRIVWHANMNDSFNVSIPYLQIRSIKIRDSKFGLALVIESSQQSGGYVLGFKIDPVEKLQESVKEINSLHKVYSASPIFGVDKEMEEKPQPLEALTVEQIQDDVEIDSDGHTDAFVAYFADGNKQQDREPVFSEELGLAIEKLKDGFTLQGLWEVMS [Y267K]
MSVLDALWEDRDVRFDLSAQQMKTRPGEVLIDCLDSIEDTKGNNGDRGRLLVTNLRILWHSLALSRVNVSVGYNCILNITTRTANSKLRGQTEALYILTKCNSTRFEFIFTNLVPGSPRLFTSVMAVHRAYETSKMYRDFKLRSALIQNKQLRLLPQEHVYDKINGVWNLSSDQGNLGTFFITNVRIVWHANMNDSFNVSIPYLQIRSIKIRDSKFGLALVIESSQQSGGYVLGFKIDPVEKLQESVKEINSLHKVYSASPIFGVDYAMEEKPQPLEALTVEQIQDDVEIDSDGHTDAFVAYFADGNKQQDREPVFSEELGLAIEKLKDGFTLQGLWEVMS [E268A]
MSVLDALWEDRDVRFDLSAQQMKTRPGEVLIDCLDSIEDTKGNNGDRGRLLVTNLRILWHSLALSRVNVSVGYNCILNITTRTANSKLRGQTEALYILTKCNSTRFEFIFTNLVPGSPRLFTSVMAVHRAYETSKMYRDFKLRSALIQNKQLRLLPQEHVYDKINGVWNLSSDQGNLGTFFITNVRIVWHANMNDSFNVSIPYLQIRSIKIRDSKFGLALVIESSQQSGGYVLGFKIDPVEKLQESVKEINSLHKVYSASPIFGVDYKMEEKPQPLEALTVEQIQDDVEIDSDGHTDAFVAYFADGNKQQDREPVFSEELGLAIEKLKDGFTLQGLWEVMS [E268K]
MSVLDALWEDRDVRFDLSAQQMKTRPGEVLIDCLDSIEDTKGNNGDRGRLLVTNLRILWHSLALSRVNVSVGYNCILNITTRTANSKLRGQTEALYILTKCNSTRFEFIFTNLVPGSPRLFTSVMAVHRAYETSKMYRDFKLRSALIQNKQLRLLPQEHVYDKINGVWNLSSDQGNLGTFFITNVRIVWHANMNDSFNVSIPYLQIRSIKIRDSKFGLALVIESSQQSGGYVLGFKIDPVEKLQESVKEINSLHKVYSASPIFGVDYEAEEKPQPLEALTVEQIQDDVEIDSDGHTDAFVAYFADGNKQQDREPVFSEELGLAIEKLKDGFTLQGLWEVMS [M269A]
MSVLDALWEDRDVRFDLSAQQMKTRPGEVLIDCLDSIEDTKGNNGDRGRLLVTNLRILWHSLALSRVNVSVGYNCILNITTRTANSKLRGQTEALYILTKCNSTRFEFIFTNLVPGSPRLFTSVMAVHRAYETSKMYRDFKLRSALIQNKQLRLLPQEHVYDKINGVWNLSSDQGNLGTFFITNVRIVWHANMNDSFNVSIPYLQIRSIKIRDSKFGLALVIESSQQSGGYVLGFKIDPVEKLQESVKEINSLHKVYSASPIFGVDYEEEEKPQPLEALTVEQIQDDVEIDSDGHTDAFVAYFADGNKQQDREPVFSEELGLAIEKLKDGFTLQGLWEVMS [M269E]
MSVLDALWEDRDVRFDLSAQQMKTRPGEVLIDCLDSIEDTKGNNGDRGRLLVTNLRILWHSLALSRVNVSVGYNCILNITTRTANSKLRGQTEALYILTKCNSTRFEFIFTNLVPGSPRLFTSVMAVHRAYETSKMYRDFKLRSALIQNKQLRLLPQEHVYDKINGVWNLSSDQGNLGTFFITNVRIVWHANMNDSFNVSIPYLQIRSIKIRDSKFGLALVIESSQQSGGYVLGFKIDPVEKLQESVKEINSLHKVYSASPIFGVDYEKEEKPQPLEALTVEQIQDDVEIDSDGHTDAFVAYFADGNKQQDREPVFSEELGLAIEKLKDGFTLQGLWEVMS [M269K]
MSVLDALWEDRDVRFDLSAQQMKTRPGEVLIDCLDSIEDTKGNNGDRGRLLVTNLRILWHSLALSRVNVSVGYNCILNITTRTANSKLRGQTEALYILTKCNSTRFEFIFTNLVPGSPRLFTSVMAVHRAYETSKMYRDFKLRSALIQNKQLRLLPQEHVYDKINGVWNLSSDQGNLGTFFITNVRIVWHANMNDSFNVSIPYLQIRSIKIRDSKFGLALVIESSQQSGGYVLGFKIDPVEKLQESVKEINSLHKVYSASPIFGVDYEMAEKPQPLEALTVEQIQDDVEIDSDGHTDAFVAYFADGNKQQDREPVFSEELGLAIEKLKDGFTLQGLWEVMS [E270A]
MSVLDALWEDRDVRFDLSAQQMKTRPGEVLIDCLDSIEDTKGNNGDRGRLLVTNLRILWHSLALSRVNVSVGYNCILNITTRTANSKLRGQTEALYILTKCNSTRFEFIFTNLVPGSPRLFTSVMAVHRAYETSKMYRDFKLRSALIQNKQLRLLPQEHVYDKINGVWNLSSDQGNLGTFFITNVRIVWHANMNDSFNVSIPYLQIRSIKIRDSKFGLALVIESSQQSGGYVLGFKIDPVEKLQESVKEINSLHKVYSASPIFGVDYEMKEKPQPLEALTVEQIQDDVEIDSDGHTDAFVAYFADGNKQQDREPVFSEELGLAIEKLKDGFTLQGLWEVMS [E270K]
MSVLDALWEDRDVRFDLSAQQMKTRPGEVLIDCLDSIEDTKGNNGDRGRLLVTNLRILWHSLALSRVNVSVGYNCILNITTRTANSKLRGQTEALYILTKCNSTRFEFIFTNLVPGSPRLFTSVMAVHRAYETSKMYRDFKLRSALIQNKQLRLLPQEHVYDKINGVWNLSSDQGNLGTFFITNVRIVWHANMNDSFNVSIPYLQIRSIKIRDSKFGLALVIESSQQSGGYVLGFKIDPVEKLQESVKEINSLHKVYSASPIFGVDYEMEAKPQPLEALTVEQIQDDVEIDSDGHTDAFVAYFADGNKQQDREPVFSEELGLAIEKLKDGFTLQGLWEVMS [E271A]
MSVLDALWEDRDVRFDLSAQQMKTRPGEVLIDCLDSIEDTKGNNGDRGRLLVTNLRILWHSLALSRVNVSVGYNCILNITTRTANSKLRGQTEALYILTKCNSTRFEFIFTNLVPGSPRLFTSVMAVHRAYETSKMYRDFKLRSALIQNKQLRLLPQEHVYDKINGVWNLSSDQGNLGTFFITNVRIVWHANMNDSFNVSIPYLQIRSIKIRDSKFGLALVIESSQQSGGYVLGFKIDPVEKLQESVKEINSLHKVYSASPIFGVDYEMEKKPQPLEALTVEQIQDDVEIDSDGHTDAFVAYFADGNKQQDREPVFSEELGLAIEKLKDGFTLQGLWEVMS [E271K]
